The values that follow are results of earlier work, collected in publication PMC2652713, “Molecular Blocking of CD23 Supports Its Role in the Pathogenesis of Arthritis” (PLoS ONE, 2009).

The data set concerns human macrophages and epithelial cells. The source says:
Authors reported overexpression of membrane bound and sCD23 during acute juvenile or adult arthritis, with a clear pro-inflammatory property in this form. In the present study, we report similar observations in peripheral and synovial liquid monocytes/macrophages from adult arthritic patients (Figure 5).

B1: IL-10: a well-known immunoregulator and Th-1 inhibitor cytokine (protein, UniProt P22301 19-178, looked up)
Interleukin-10: SPGQGTQSENSCTHFPGNLPNMLRDLRDAFSRVKTFFQMKDQLDNLLLKESLLEDFKGYLGCQALSEMIQFYLEEVMPQAENQDPDIKAHVNSLGENLKTLRLRLRRCHRFLPCENKSKAVEQVKNAFNKLQEKGIYKAMSEFDIFINYIEAYMTMKIRN
For the molecule B1, the “CD23-mediated TNF-α production” value is “decreased” and the “CD23-mediated nitric oxide production” value was “decreased”.
